B2: (His)10-MBP-DotL(656-783)–IcmSW–LvgA (complex)
chain 1: GQNEPEPVEDIVEEEVEGALTIFSKLRIDPNAPPILVADKEVFSEPLLPINETRNQMITIERLAGAKDKYAGTVANELIKDFQIATSYPPEERDVIDVQELTGIIRDLSAKISAEREKANKKAAEELT
chain 2: MERDISKCMAKIAASMNAKFYLNDRFVSFDEVFSETGLLPAIAKRADQLCSLCLGYGLGATYDESEGALLGIRVVFDEVTPNVLRLLCMTDVMNELIQGGPSRDYTPLDELMYD
chain 3: MPDLSHEASAKYWFEYLDPMIYRVITFMESVENWTLDGNPELEEAMKQLGQELDDIEKIDLGLLAEEDKFIRIVGNIKSGRGLRLLQAIDTVHPGSASRVLIHAEETSLSSSDPAGFFLKRNIVFERLRLLSRVFCQYRLKLVLRALEGDE
chain 4: MADGDIEIKAGFVDTDLDDRKLTMIDDLNNPLAIVERVYLIWWHWADFHLHVISPHIDTITPAIVIEPELIPGSNDHEFVYSIHDSGSKLSTSKSQDMFSAGMSMCKLFYTIEKMVYILVERLKSGGVSMEAEVQIAFAGHEIAQRKAFESIINLPYNVVVTNFDPGIWGEKYLQNVKRLADKGYGYPPESPRKIYMHPVSSGTTARK

Assays:
Assay in all cases: BLI
[1] = molecular target: B2
PieA = PieA (Legionella pneumophila)
SidH(1830-2200) = SidH(1830-2200) (Legionella pneumophila, UniProt Q5ZRQ1 1830-2200)

B1: SetA (natural protein)
chain: MYKIYSYLGWRIDMKTENLPQAGQEAQIDKKIHFIWVGHIMPQKNIQVVSEWAEKNPGYETIIWVDKKIAPAKELDLFILDMKSKGITVKDINEEGVCRDSIRHELDQESPNYGMVSDMLRLNILAAEGGIYLDSDILCSAPFPDEIYAPFGFLLSPWSQGANNTLCNDIILCSKGNQIIQQLADAIEQSYIARDSFEFTHEYASMKETKGERIAKTLGVTGPGFLFHQLKKMGILNDKSEMEAIHWELQDQRYLIDGSVKEPDYFYVPQNNTNDASWVPSIKRPGIENMSFQERLENAVQLIAFDIQKTGLFNLDHYANELKVKQNSWCIAAETSPELKPDSYLLIRPRDKTGEWTLYYVDEDKKLNPVTLPVIKGAIKLSEVSDPLRKFHTLLSQVSDPVNPTAHELKQIGRALIELKPRQDEWHCKNKWSGAEEIAQELWQRITSNETLRAQIKQCFTQFESLKPRVAELGLTRASGAGTEVEAHESTVKEQEIISQNTVGEEGTKEKNSVQLASENSSDEKIKTAHDLIDEIIQDVIQLDGKLGLLGGNTRQLEDGRVINIPNGAAMIFDDYKKYKQGELTAESALESMIKIAKLSNQLNRHTFFNQRQPETGQFYKKVAAIDLQTTIAAEYDNNHGLRI
Kd [1]: 920 nM

B2
Kd (PieA): 230 nM
Kd (SidH(1830-2200)): 570 nM

Reference: PMC7251119 (2020)
